In patent US20190269786A1 (published 2019):

Assays:
Test in all cases: cell-based or functional assay
EGFR = EGFR (UniProt P00533 25-1210, limits assumed)
[1] = target: T1, folate receptor 1 (FOLR1) (human, UniProt P15328 25-234)
[2] = target: T1, folate receptor 1 (FOLR1); remark: listed apart in the source
[3] = target: T1, folate receptor 1 (FOLR1); remark: listed apart in the source

T1 sequence (P15328 25-234): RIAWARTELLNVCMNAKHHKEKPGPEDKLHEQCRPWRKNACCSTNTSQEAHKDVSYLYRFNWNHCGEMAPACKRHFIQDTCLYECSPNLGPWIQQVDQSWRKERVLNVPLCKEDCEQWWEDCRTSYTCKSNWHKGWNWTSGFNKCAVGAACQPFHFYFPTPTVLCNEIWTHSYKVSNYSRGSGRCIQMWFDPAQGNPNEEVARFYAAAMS

B1: huML66-90 conjugate (antibody, human IgG1, kappa, V domains shown)
VH: QVQLQESGPGLVKPSETLSLTCTVSGLSLASNSVSWIRQPPGKGLEWMGVIWNHGGTDYNPSIKSRLSISRDTSKSQVFLKMNSLTAADTAMYFCVRKGGIYFDYWGQGVLVTVSS
VL: DTVLTQSPSLAVSPGERATISCRASESVSTLMHWYQQKPGQQPKLLIYLASHRESGVPARFSGSGSGTDFTLTIDPMEAEDTATYYCQQSRNDPWTFGQGTKLELKR
modifications: drug attachment sites not stated (see heavy chain); compound 90 conjugated to the antibody, average 2.7 per antibody; residues not stated
EGFR
  EC50, in vitro cytotoxicity (WST-8), Detroit-562 cells: 16 pM
  EC50, in vitro cytotoxicity (WST-8), NCI-H292 cells: 12 pM
  EC50, in vitro cytotoxicity (WST-8), NCI-H1703 cells: 20 pM
  EC50, in vitro cytotoxicity, Detroit-562 cells, +block (excess unconjugated huML66 antibody): 2350 pM
  EC50, in vitro cytotoxicity, NCI-H292 cells, +block (excess unconjugated huML66 antibody): 1570 pM
  EC50, in vitro cytotoxicity, NCI-H1703 cells, +block (excess unconjugated huML66 antibody): 2140 pM

B2: huMOV19-14 conjugate (antibody, human IgG1, kappa, V domains shown)
VH: QVQLVQSGAEVVKPGASVKISCKASGYTFTGYFMNWVKQSPGQSLEWIGRIHPYDGDTFYNQKFQGKATLTVDKSSNTAHMELLSLTSEDFAVYYCTRYDGSRAMDYWGQGTTVTVSS
VL: DIVLTQSPLSLAVSLGQPAIISCKASQSVSFAGTSLMHWYHQKPGQQPRLLIYRASNLEAGVPDRFSGSGSKTDFTLTISPVEAEDAATYYCQQSREYPYTFGGGTKLEIKR
modifications: drug attachment sites not stated (see heavy chain); compound 14 (indolinobenzodiazepine dimer, Gly-Gly-Gly linker, NHS ester) conjugated to the antibody, average 3.0 per antibody; residues not stated
[1]
  IC50, in vitro cytotoxicity (WST-8) against KB cells: 4 pM

B3: huMOV19-sulfo-SPDB-107 conjugate (antibody, human IgG1, kappa, V domains shown)
VH: QVQLVQSGAEVVKPGASVKISCKASGYTFTGYFMNWVKQSPGQSLEWIGRIHPYDGDTFYNQKFQGKATLTVDKSSNTAHMELLSLTSEDFAVYYCTRYDGSRAMDYWGQGTTVTVSS
VL: DIVLTQSPLSLAVSLGQPAIISCKASQSVSFAGTSLMHWYHQKPGQQPRLLIYRASNLEAGVPDRFSGSGSKTDFTLTISPVEAEDAATYYCQQSREYPYTFGGGTKLEIKR
modifications: drug attachment sites not stated (see heavy chain); compound 107 linked through sulfo-SPDB linker to the antibody, average 2.7 per antibody; residues not stated
[2]
  IC50, in vitro cytotoxicity (WST-8), Ishikawa cells, conjugate: 50 pM
  IC50, in vitro cytotoxicity (WST-8), KB cells, conjugate: 5 pM
  IC50, in vitro cytotoxicity (WST-8), NCI-H2110 cells, conjugate: 100 pM
  IC50, in vitro cytotoxicity, Ishikawa cells, conjugate + unmodified antibody (1 µM huMOV19): 2000 pM
  IC50, in vitro cytotoxicity, KB cells, conjugate + unmodified antibody (1 µM huMOV19): 800 pM
  IC50, in vitro cytotoxicity, NCI-H2110 cells, conjugate + unmodified antibody (1 µM huMOV19): 7000 pM

B4: huMOV19-90 conjugate (antibody, human IgG1, kappa, V domains shown)
VH: QVQLVQSGAEVVKPGASVKISCKASGYTFTGYFMNWVKQSPGQSLEWIGRIHPYDGDTFYNQKFQGKATLTVDKSSNTAHMELLSLTSEDFAVYYCTRYDGSRAMDYWGQGTTVTVSS
VL: DIVLTQSPLSLAVSLGQPAIISCKASQSVSFAGTSLMHWYHQKPGQQPRLLIYRASNLEAGVPDRFSGSGSKTDFTLTISPVEAEDAATYYCQQSREYPYTFGGGTKLEIKR
modifications: drug attachment sites not stated (see heavy chain); compound 90 (indolinobenzodiazepine dimer, L-Ala-L-Ala linker, NHS ester) conjugated to the antibody, average 2.7 per antibody; residues not stated
[3]
  IC50, in vitro cytotoxicity (WST-8), KB cells, -Block: 4 pM
  IC50, in vitro cytotoxicity (WST-8), NCI-H2110 cells, -Block: 20 pM
  IC50, in vitro cytotoxicity, KB cells, +Block (1 µM blocking anti-FOLR1 antibody huMOV19): 800 pM
  IC50, in vitro cytotoxicity, NCI-H2110 cells, +Block (1 µM blocking anti-FOLR1 antibody huMOV19): 10000 pM
[2]
  IC50, in vitro cytotoxicity (WST-8), Ishikawa cells, conjugate: 50 pM
  IC50, in vitro cytotoxicity (WST-8), KB cells, conjugate: 5 pM
  IC50, in vitro cytotoxicity (WST-8), NCI-H2110 cells, conjugate: 100 pM
  IC50, in vitro cytotoxicity, Ishikawa cells, conjugate + unmodified antibody (1 µM huMOV19): 1000 pM
  IC50, in vitro cytotoxicity, KB cells, conjugate + unmodified antibody (1 µM huMOV19): 1000 pM
  IC50, in vitro cytotoxicity, NCI-H2110 cells, conjugate + unmodified antibody (1 µM huMOV19): 4000 pM
